In paper PMC6536502, “Structural insights into DNA recognition by AimR of the arbitrium communication system in the SPbeta phage” (Cell Discovery, 2019):

Assays:
Experiment in all cases: EMSA; 5 mM Mg2+; EMSA: 25 mM Tris-HCl pH 8.0, 150 mM NaCl, 5 mM MgCl2, 5 mM DTT, 0.1 mg/ml BSA, 10% glycerol, 50 ug/ml salmon sperm DNA, 4 C, 15 min; smFRET: 20 mM phosphate pH
AimR = target: T1, AimR (Bacillus phage SPbeta, UniProt O64094 1-386); conditions: protein: recombinant; tags: C-terminal 8xHis; chain copies: 2
T1 sequence: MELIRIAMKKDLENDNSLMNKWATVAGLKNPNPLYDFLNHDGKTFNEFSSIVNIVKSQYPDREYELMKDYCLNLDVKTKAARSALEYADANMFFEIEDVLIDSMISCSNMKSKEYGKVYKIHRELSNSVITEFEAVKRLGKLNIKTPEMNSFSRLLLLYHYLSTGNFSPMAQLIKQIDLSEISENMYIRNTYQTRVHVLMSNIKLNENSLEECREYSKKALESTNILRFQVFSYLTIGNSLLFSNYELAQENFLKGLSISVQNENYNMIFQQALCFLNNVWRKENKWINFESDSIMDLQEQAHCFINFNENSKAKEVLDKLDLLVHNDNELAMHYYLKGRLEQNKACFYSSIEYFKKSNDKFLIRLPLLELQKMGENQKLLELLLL

AimR N32A = target: T2, AimR N32A (Bacillus phage SPbeta, UniProt O64094 1-386, N32A); conditions: protein: recombinant; tags: 6xHis removed by drICE; chain copies: 2
T2 sequence: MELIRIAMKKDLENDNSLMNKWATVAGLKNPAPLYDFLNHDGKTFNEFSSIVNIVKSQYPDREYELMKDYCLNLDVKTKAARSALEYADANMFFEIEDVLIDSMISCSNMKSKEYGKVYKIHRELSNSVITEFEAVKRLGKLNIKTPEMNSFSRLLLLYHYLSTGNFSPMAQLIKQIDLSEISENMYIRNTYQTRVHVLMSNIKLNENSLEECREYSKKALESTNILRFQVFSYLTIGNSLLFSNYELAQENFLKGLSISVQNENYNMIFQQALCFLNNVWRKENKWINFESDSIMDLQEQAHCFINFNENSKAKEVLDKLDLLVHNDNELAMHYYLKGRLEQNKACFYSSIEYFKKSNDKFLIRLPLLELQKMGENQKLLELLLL

AimR T44D = target: T3, AimR T44D (Bacillus phage SPbeta, UniProt O64094 1-386, T44D); conditions: protein: recombinant; tags: 6xHis removed by drICE; chain copies: 2
T3 sequence: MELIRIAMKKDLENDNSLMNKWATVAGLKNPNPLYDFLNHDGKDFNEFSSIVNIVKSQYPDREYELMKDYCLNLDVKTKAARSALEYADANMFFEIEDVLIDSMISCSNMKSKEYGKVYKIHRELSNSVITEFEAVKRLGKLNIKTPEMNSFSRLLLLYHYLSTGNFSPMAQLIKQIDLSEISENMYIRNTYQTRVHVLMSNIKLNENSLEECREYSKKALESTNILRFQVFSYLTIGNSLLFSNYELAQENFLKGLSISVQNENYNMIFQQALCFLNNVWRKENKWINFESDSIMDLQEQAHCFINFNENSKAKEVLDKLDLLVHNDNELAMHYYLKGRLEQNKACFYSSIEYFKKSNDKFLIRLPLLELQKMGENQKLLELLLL

B1: 31 bp aimX-upstream palindromic DNA (dsDNA)
DNA 1: ACTTAAATATTAGGTTTTAATAACATCTAGT
DNA 2: ACTAGATGTTATTAAAACCTAATATTTAAGT
For B1, the Kd (AimR) was 100 ± 27.6 nM, the Kd (AimR N32A) was 6.82 ± 2.25 µM and the binding signal (AimR T44D) was 11 fold lower affinity than WT AimR.
